Test results as given in patent publication US20210269496A1 (PANDION OPERATIONS, published 2021).

molecular target: T1, CD25 (Homo sapiens (Human), UniProt P01589 22-240); assay: ELISA, CD25 coated at 0.5 µg/mL, detection with biotinylated anti-IL-2 polyclonal
T1 construct: also called IL-2R alpha chain
T1 sequence: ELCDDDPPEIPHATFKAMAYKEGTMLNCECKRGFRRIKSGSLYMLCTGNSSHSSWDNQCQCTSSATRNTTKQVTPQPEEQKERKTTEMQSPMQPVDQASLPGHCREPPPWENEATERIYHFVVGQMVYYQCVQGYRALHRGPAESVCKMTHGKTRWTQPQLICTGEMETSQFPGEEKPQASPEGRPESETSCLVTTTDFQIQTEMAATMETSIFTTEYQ
Experimental: An immunosorbent plate was coated with CD25 at a concentration of 0.5 μg/mL in PBS pH 7.4, 75 μL/well, and incubated overnight at 4° C. Wells were washed with PBS pH 7.4 containing 0.05% Tween-20 (wash buffer) three times, and then blocked with 200 μL/well 1% BSA in PBS pH 7.4 (block buffer) for two hours at room temperature. After three washes with wash buffer IL-2 muteins SEQ ID NO: 53, SEQ ID NO: 54, SEQ ID NO: 55, SEQ ID NO: 56 were diluted to eleven-two fold serial dilution in PBS containing 1% BSA and 0.05% Tween-20 (assay buffer) with 2 nM being the highest concentration. The diluted material was added to the CD25 coated plate at 75 μL/well for 1 hour at room temperature. After three washes with wash buffer, a goat biotinylated anti-IL-2 polyclonal antibody, diluted to 0.05 μg/mL in assay buffer, was added to the plate at 75 μL/well for 1 hour at room temperature. After three washes with wash buffer high sensitivity streptavidin HRP diluted in assay buffer at 1:5000 was added to the plate at 75 μL/well for 15 minutes at room temperature. After three washes with wash buffer and 1 wash with wash buffer (with no Tween-20), the assay was developed with TMB, and stopped with 1N HCL. OD 450 nm was measured. The experiment included appropriate controls for non-specific binding of the molecules to the plate/block in the absence of CD25. […] Additionally, there was no detection of any compound at any concentration tested, when CD25 was not present on the plate surface, indicating none of the test compounds were interacting non-specifically with the plate surface. Thus, the muteins of Example 19 can bind to CD25.

Molecule	EC50 [nM]
human IL-2 mutein polypeptide fused N-terminally to human IgG1 Fc domain (SEQ ID NO: 57) (Fc fusion, also called IL-2 N88D V69A, Q74P-G4Sx4-Fc) APTSSSTKKTQLQLEHLLLDLQMILNGINNYKNPKLTRMLTFKFYMPKKATELKHLQCLEEELKPLEEALNLAPSKNFHLRPRDLISDINVIVLELKGSETTFMCEYADETATIVEFLNRWITFSQSIISTLTGGGGSGGGGSGGGGSGGGGSDKTHTCPPCPAPEAAGAPSVFLFPPKPKDTLMISRTPEVTCVVVDVSHEDPEVKFNWYVDGVEVHNAKTKPREEQYNSTYRVVSVLTVLHQDWLNGKEYKCKVSNKALPAPIEKTISKAKGQPREPQVYTLPPSREEMTKNQVSLTCLVKGFYPSDIAVEWESNGQPENNYKTTPPVLDSDGSFFLYSKLTVDKSRWQQGNVFSCSVMHEALHNHYTQKSLSLSPG	< 1
SEQ ID NO 53 (Fc fusion, also called IL-2 L53I N88D V69A, Q74P,C125S-G4Sx4-Fc) APTSSSTKKTQLQLEHLLLDLQMILNGINNYKNPKLTRMLTFKFYMPKKATEIKHLQCLEEELKPLEEALNLAPSKNFHLRPRDLISDINVIVLELKGSETTFMCEYADETATIVEFLNRWITFSQSIISTLTGGGGSGGGGSGGGGSGGGGSDKTHTCPPCPAPEAAGAPSVFLFPPKPKDTLMISRTPEVTCVVVDVSHEDPEVKFNWYVDGVEVHNAKTKPREEQYNSTYRVVSVLTVLHQDWLNGKEYKCKVSNKALPAPIEKTISKAKGQPREPQVYTLPPSREEMTKNQVSLTCLVKGFYPSDIAVEWESNGQPENNYKTTPPVLDSDGSFFLYSKLTVDKSRWQQGNVFSCSVMHEALHNHYTQKSLSLSPG	< 1
SEQ ID NO 55 (Fc fusion, also called IL-2 L80I N88D V69A, C125S Q74P-G4Sx4-Fc) APTSSSTKKTQLQLEHLLLDLQMILNGINNYKNPKLTRMLTFKFYMPKKATELKHLQCLEEELKPLEEALNLAPSKNFHIRPRDLISDINVIVLELKGSETTFMCEYADETATIVEFLNRWITFSQSIISTLTGGGGSGGGGSGGGGSGGGGSDKTHTCPPCPAPEAAGAPSVFLFPPKPKDTLMISRTPEVTCVVVDVSHEDPEVKFNWYVDGVEVHNAKTKPREEQYNSTYRVVSVLTVLHQDWLNGKEYKCKVSNKALPAPIEKTISKAKGQPREPQVYTLPPSREEMTKNQVSLTCLVKGFYPSDIAVEWESNGQPENNYKTTPPVLDSDGSFFLYSKLTVDKSRWQQGNVFSCSVMHEALHNHYTQKSLSLSPG	< 1
SEQ ID NO 54 (Fc fusion, also called IL-2 L56I N88D V69A, Q74P, C125S-G4Sx4-Fc) APTSSSTKKTQLQLEHLLLDLQMILNGINNYKNPKLTRMLTFKFYMPKKATELKHIQCLEEELKPLEEALNLAPSKNFHLRPRDLISDINVIVLELKGSETTFMCEYADETATIVEFLNRWITFSQSIISTLTGGGGSGGGGSGGGGSGGGGSDKTHTCPPCPAPEAAGAPSVFLFPPKPKDTLMISRTPEVTCVVVDVSHEDPEVKFNWYVDGVEVHNAKTKPREEQYNSTYRVVSVLTVLHQDWLNGKEYKCKVSNKALPAPIEKTISKAKGQPREPQVYTLPPSREEMTKNQVSLTCLVKGFYPSDIAVEWESNGQPENNYKTTPPVLDSDGSFFLYSKLTVDKSRWQQGNVFSCSVMHEALHNHYTQKSLSLSPG	< 1
SEQ ID NO 56 (Fc fusion, also called IL-2 L118I N88D V69A, Q74P, C125S-G4Sx4-Fc) APTSSSTKKTQLQLEHLLLDLQMILNGINNYKNPKLTRMLTFKFYMPKKATELKHLQCLEEELKPLEEALNLAPSKNFHLRPRDLISDINVIVLELKGSETTFMCEYADETATIVEFINRWITFSQSIISTLTGGGGSGGGGSGGGGSGGGGSDKTHTCPPCPAPEAAGAPSVFLFPPKPKDTLMISRTPEVTCVVVDVSHEDPEVKFNWYVDGVEVHNAKTKPREEQYNSTYRVVSVLTVLHQDWLNGKEYKCKVSNKALPAPIEKTISKAKGQPREPQVYTLPPSREEMTKNQVSLTCLVKGFYPSDIAVEWESNGQPENNYKTTPPVLDSDGSFFLYSKLTVDKSRWQQGNVFSCSVMHEALHNHYTQKSLSLSPG	< 1

molecular target: mouse PD-1 on primary mouse T cell blasts (mouse) (UniProt Q02242); assay: cell-based or functional assay
Sequence (Q02242 25-288): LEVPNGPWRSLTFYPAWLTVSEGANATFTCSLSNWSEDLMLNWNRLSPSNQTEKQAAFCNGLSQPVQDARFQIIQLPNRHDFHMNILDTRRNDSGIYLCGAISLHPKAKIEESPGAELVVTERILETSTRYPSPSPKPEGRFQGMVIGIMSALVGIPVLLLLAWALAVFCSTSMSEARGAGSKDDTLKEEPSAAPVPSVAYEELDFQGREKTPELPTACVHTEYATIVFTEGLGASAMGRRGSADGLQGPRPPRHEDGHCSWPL

Molecule	Mouse agonist-CTG: IC50 [nM]
PD-L1 (reference in the table of Example 36) (ligand)	2.4
